Results taken from patent US20190328677A1.

Experiments:
[1] = target: human Fn14 on cells (MEF Fn14-V5, U87-Luc/GFP, 231-Luc) (human); experiment: human U87 glioma cells treated with fluorescent particles (FIG. 3C; legend says flow cytometry)
[2] = target: Fn14 extracellular domain (recombinant, Cell Sciences); experiment: SPR (Biacore 3000), Fn14 extracellular domain on CM5 chip, equilibrium fit, per nanoparticle
[3] = target: human Fn14 on cells (MEF Fn14-V5, U87-Luc/GFP, 231-Luc) (human); experiment: flow cytometry, human U87-Luc/GFP GBM cells
[4] = target: human Fn14 on cells (MEF Fn14-V5, U87-Luc/GFP, 231-Luc) (human); experiment: flow cytometry, MEF Fn14-V5 cells expressing human Fn14
[5] = target: Fn14 extracellular domain (recombinant, Cell Sciences); experiment: SPR (Biacore), ratio of KD against free ITEM4
[6] = target: Fn14 extracellular domain (recombinant, Cell Sciences); experiment: SPR (Biacore 3000), Fn14 extracellular domain on CM5 chip, equilibrium fit
[7] = target: Fn14 extracellular domain (recombinant, Cell Sciences); experiment: SPR (Biacore), Fn14 extracellular domain on chip, binding isotherm of RUeq, per nanoparticle
[8] = target: Fn14 extracellular domain (recombinant, Cell Sciences); experiment: SPR (Biacore), Fn14 chip, nanoparticles first incubated with mouse blood serum
[9] = target: human Fn14 on cells (MEF Fn14-V5, U87-Luc/GFP, 231-Luc) (human); experiment: flow cytometry, 231-Luc cells
[10] = target: human Fn14 on cells (MEF Fn14-V5, U87-Luc/GFP, 231-Luc) (human); experiment: cell-based or functional assay

Substance “BPN conjugated with ITEM4 at high density” has a fold increase in binding to glioma cells against non-targeted BPN [1] of 4.5 fold.
In the case of “CNP-ITEM4 (high): 100 nm PEG-coated polystyrene nanoparticles decorated with a high density of ITEM4”, the Kd [2] is reported as 0.024 nM, the fold cellular uptake efficiency against CNP alone [3] is reported as 3.5 fold and the fold cellular uptake against CNP [4] is reported as 2.5 fold. For the same substance, the fold higher binding affinity than ITEM4 alone [5] was 65 fold.
“CNP-ITEM4 (low): 100 nm PEG-coated polystyrene nanoparticles decorated with a low density of ITEM4” gave a Kd [2] of 0.106 nM, a fold cellular uptake efficiency against CNP alone [3] of 1.25 fold and a fold higher binding affinity than ITEM4 alone [5] of 15 fold.
With “ITEM4 monoclonal antibody (Fn14-specific monoclonal antibody)” the Kd [6] was 1.62 nM.
PLGA-PEG1%-ITEM41% nanoparticles gave a Kd [7] of 3.2 nM.
PLGA-PEG5%-ITEM41% nanoparticles was tested, and the Kd [7] was 2.4 nM.
With PLGA-PEG10%-ITEM40.1% nanoparticles the Kd [7] was 26.5 nM.
For “PLGA-PEG10%-ITEM41% nanoparticles (optimized DART nanoparticles)”, the Kd [8] was 6.1 nM, the Kd [7] was 1.9 nM and the fold cellular association efficiency against PLGA-PEG [9] was 2.5 fold. The IC50 (as paclitaxel), viability of 231-Luc cells by MTS assay, 2 h exposure then 24 h in fresh medium (in vitro clearance study), paclitaxel-loaded particles [10] was 130 nM.
PLGA-PEG10%-ITEM410% nanoparticles showed a Kd [7] of 2.6 nM.
With “thiol-modified ITEM4 (ITEM4-SH) (antibody)” the Kd [6] was 1.57 nM.
